{"source": "patent US20250011434A1", "about": "“ASYMMETRIC BISPECIFIC ANTIBODY (UMG2/CD1A-CD3E) FOR THE IMMUNOLOGICAL TREATMENT OF CORTICAL-DERIVED CD1A-EXPRESSING T-CELL ACUTE LYMPHOBLASTIC LEUKEMIAS (T-ALL)” (UNIVERSITA' DEGLI STUDI MAGNA GRAECIA DI CATANZARO, published 2025)", "binders": {"B1": {"name": "asymmetric bispecific antibody UMG2/CD1a-CD3ε BTCE (bispecific antibody)", "heavy 1": "not shown", "heavy 2": "not shown", "light": "DIQMTQTTSSLSASLGDRVTISCSASQDISNYLDWYQQKPDGTVRLLIYYTSSLHSGVPSRFSGSGSGTAFSLTIINLEPEDVATYYCHQYSNLPYTFGGGTKLEIKRTVAAPSVFIFPPSDEQLKSGTASVVCLLNNFYPREAKVQWKVDNALQSGNSQESVTEQDSKDSTYSLSSTLTLSKADYEKHKVYACEVTHQGLSSPVTKSFNRGEC"}}, "target": "CD1a (Homo sapiens (Human), UniProt P06126)", "test": "titration experiments on cortical, CD1a-expressing T-ALL cell lines (apparent Kd, average)"}
{"binder": "B1", "values": [{"measurement": "Kd", "result": 0.014, "unit": "µg/mL"}]}
